This is an account of results in patent publication US20130089566A1.

The experiment concerns the target polypeptide B9-23 composed of the ninth to twenty-third amino acid residues of the amino terminal on B chain of human insulin (human).
Substance “spleen T cells of Balb/c mice of the B9-23 immune group (cells without a defined receptor)” came in with a T cell proliferation (CFSE staining, flow cytometry) of 8.94%.

Take “spleen T cells of Balb/c mice of the pcDB9-23 and B9-23 coimmune group (cells without a defined receptor)”: the T cell proliferation (CFSE staining, flow cytometry) is 0.08%.

Substance “spleen T cells of Balb/c mice of the pcDB9-23 immune group (cells without a defined receptor)” returned a T cell proliferation (CFSE staining, flow cytometry) of 22.3%.
